Laboratory results reported in publication PMC9482650, “Quantitative fragmentomics allow affinity mapping of interactomes” (Nature Communications, 2022).

T1: FRMPD1, Q5SYB0
T1 sequence (Q5SYB0 52-145, limits assumed, looked up): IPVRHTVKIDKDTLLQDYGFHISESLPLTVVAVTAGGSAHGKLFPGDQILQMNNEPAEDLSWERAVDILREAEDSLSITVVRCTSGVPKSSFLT

T2: GRIP1_3, Q9Y3R0
T2 sequence (Q9Y3R0 247-346, limits assumed, looked up): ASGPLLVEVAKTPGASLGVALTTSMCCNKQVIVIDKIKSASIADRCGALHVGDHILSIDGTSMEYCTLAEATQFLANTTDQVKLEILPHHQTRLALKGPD

T3: TJP3_3, O95049
T3 sequence (O95049 375-456, limits assumed, looked up): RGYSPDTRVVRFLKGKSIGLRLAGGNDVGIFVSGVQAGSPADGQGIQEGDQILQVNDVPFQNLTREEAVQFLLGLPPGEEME

T4: APBA2_1, Q99767
T4 sequence (Q99767 563-664, limits assumed, looked up): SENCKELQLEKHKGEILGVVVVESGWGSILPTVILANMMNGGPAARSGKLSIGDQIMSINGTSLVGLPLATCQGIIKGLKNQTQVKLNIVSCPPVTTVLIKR

T5: LNX2_3, Q8N448
T5 sequence (Q8N448 463-564, limits assumed, looked up): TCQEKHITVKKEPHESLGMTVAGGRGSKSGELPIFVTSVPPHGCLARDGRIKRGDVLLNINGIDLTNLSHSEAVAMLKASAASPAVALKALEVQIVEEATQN

T6: NHERF3_4, Q5T2W1
T6 sequence (Q5T2W1 373-468, limits assumed, looked up): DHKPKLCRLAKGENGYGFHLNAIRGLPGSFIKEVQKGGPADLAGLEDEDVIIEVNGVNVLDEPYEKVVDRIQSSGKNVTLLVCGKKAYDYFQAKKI

T7: PDZD7_3, Q9H5P4
T7 sequence (Q9H5P4 857-944, limits assumed, looked up): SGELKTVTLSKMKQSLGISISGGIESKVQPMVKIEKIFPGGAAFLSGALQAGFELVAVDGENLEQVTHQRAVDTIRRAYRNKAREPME

T8: LRRC7, Q96NW7
T8 sequence (Q96NW7 1440-1537, limits assumed, looked up): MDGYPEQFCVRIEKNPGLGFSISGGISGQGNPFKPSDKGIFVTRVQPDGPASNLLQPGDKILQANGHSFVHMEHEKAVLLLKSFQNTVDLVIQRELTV

T9: NHERF3_3, Q5T2W1
T9 sequence (Q5T2W1 238-333, limits assumed, looked up): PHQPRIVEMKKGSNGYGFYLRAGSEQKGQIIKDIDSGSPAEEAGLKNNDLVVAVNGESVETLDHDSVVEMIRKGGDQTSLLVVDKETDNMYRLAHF

T10: APBA2_2, Q99767
T10 sequence (Q99767 654-744, limits assumed, looked up): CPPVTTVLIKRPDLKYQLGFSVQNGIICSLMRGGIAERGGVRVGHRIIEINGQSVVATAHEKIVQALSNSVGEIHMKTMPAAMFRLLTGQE

T11: HTRA3, P83110
T11 sequence (P83110 354-453, limits assumed, looked up): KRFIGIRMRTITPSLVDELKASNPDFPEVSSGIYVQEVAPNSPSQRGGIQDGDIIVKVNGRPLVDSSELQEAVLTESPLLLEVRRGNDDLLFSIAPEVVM

T12: PDZD2_2, O15018
T12 sequence (O15018 329-429, limits assumed, looked up): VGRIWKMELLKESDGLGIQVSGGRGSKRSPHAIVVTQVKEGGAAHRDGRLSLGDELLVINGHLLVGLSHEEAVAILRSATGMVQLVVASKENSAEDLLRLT

T13: ARHGAP21, Q5T5U3
T13 sequence (Q5T5U3 45-169, limits assumed, looked up): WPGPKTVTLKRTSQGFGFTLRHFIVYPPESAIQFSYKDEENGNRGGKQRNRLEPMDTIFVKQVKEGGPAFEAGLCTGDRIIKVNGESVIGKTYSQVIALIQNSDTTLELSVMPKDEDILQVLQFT


molecular target: TJP1_3, Q07157; assay: holdup assay; design: key: below the threshold = too weak to quantify, mostly under pKd 3.1 to 4; settings: modified: phospho on T at position -2 from the C-terminal residue
Sequence (Q07157 416-512): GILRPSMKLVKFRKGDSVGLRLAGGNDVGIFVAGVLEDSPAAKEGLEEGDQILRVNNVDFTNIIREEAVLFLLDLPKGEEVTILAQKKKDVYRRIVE

Row | Binder | pKd
1 | SRSRRRETAL [HPV33-E6_-2P, P06427] | below the threshold

molecular target: T1, FRMPD1, Q5SYB0; assay: holdup assay; design: key: below the threshold = too weak to quantify, mostly under pKd 3.1 to 4; settings: modified: phospho on T at position -2 from the C-terminal residue

Row | Binder | pKd
2 | SRSRRRETAL [HPV33-E6_-2P, P06427] | below the threshold

molecular target: T2, GRIP1_3, Q9Y3R0; assay: holdup assay; design: key: below the threshold = too weak to quantify, mostly under pKd 3.1 to 4; settings: modified: phospho on T at position -2 from the C-terminal residue

Row | Binder | pKd
3 | SRSRRRETAL [HPV33-E6_-2P, P06427] | below the threshold

molecular target: T3, TJP3_3, O95049; assay: holdup assay; design: key: below the threshold = too weak to quantify, mostly under pKd 3.1 to 4; settings: modified: phospho on T at position -2 from the C-terminal residue

Row | Binder | pKd
4 | SRSRRRETAL [HPV33-E6_-2P, P06427] | below the threshold

molecular target: Inadl_3, Q8NI35; assay: holdup assay; design: key: below the threshold = too weak to quantify, mostly under pKd 3.1 to 4; settings: modified: phospho on T at position -2 from the C-terminal residue
Sequence (Q8NI35 359-469): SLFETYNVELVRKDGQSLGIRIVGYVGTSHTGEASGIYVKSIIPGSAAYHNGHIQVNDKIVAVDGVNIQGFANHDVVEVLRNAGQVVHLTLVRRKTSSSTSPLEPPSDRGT

Row | Binder | pKd
5 | SRSRRRETAL [HPV33-E6_-2P, P06427] | below the threshold

molecular target: T4, APBA2_1, Q99767; assay: holdup assay; design: key: below the threshold = too weak to quantify, mostly under pKd 3.1 to 4; settings: modified: phospho on T at position -2 from the C-terminal residue

Row | Binder | pKd
6 | SRSRRRETAL [HPV33-E6_-2P, P06427] | below the threshold

molecular target: T5, LNX2_3, Q8N448; assay: holdup assay; design: key: below the threshold = too weak to quantify, mostly under pKd 3.1 to 4; settings: modified: phospho on T at position -2 from the C-terminal residue

Row | Binder | pKd
7 | SRSRRRETAL [HPV33-E6_-2P, P06427] | below the threshold

molecular target: T6, NHERF3_4, Q5T2W1; assay: holdup assay; design: key: below the threshold = too weak to quantify, mostly under pKd 3.1 to 4; settings: modified: phospho on T at position -2 from the C-terminal residue

Row | Binder | pKd
8 | SRSRRRETAL [HPV33-E6_-2P, P06427] | below the threshold

molecular target: T7, PDZD7_3, Q9H5P4; assay: holdup assay; design: key: below the threshold = too weak to quantify, mostly under pKd 3.1 to 4; settings: modified: phospho on T at position -2 from the C-terminal residue

Row | Binder | pKd
9 | SRSRRRETAL [HPV33-E6_-2P, P06427] | 3.74

molecular target: Inadl_9, Q8NI35; assay: holdup assay; design: key: below the threshold = too weak to quantify, mostly under pKd 3.1 to 4; settings: modified: phospho on T at position -2 from the C-terminal residue
Sequence (Q8NI35 1530-1615): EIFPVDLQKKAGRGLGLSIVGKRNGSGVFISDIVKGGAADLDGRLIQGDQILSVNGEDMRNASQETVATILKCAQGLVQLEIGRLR

Row | Binder | pKd
10 | SRSRRRETAL [HPV33-E6_-2P, P06427] | below the threshold

molecular target: T8, LRRC7, Q96NW7; assay: holdup assay; design: key: below the threshold = too weak to quantify, mostly under pKd 3.1 to 4; settings: modified: phospho on T at position -2 from the C-terminal residue

Row | Binder | pKd
11 | SRSRRRETAL [HPV33-E6_-2P, P06427] | below the threshold

molecular target: T9, NHERF3_3, Q5T2W1; assay: holdup assay; design: key: below the threshold = too weak to quantify, mostly under pKd 3.1 to 4; settings: modified: phospho on T at position -2 from the C-terminal residue

Row | Binder | pKd
12 | SRSRRRETAL [HPV33-E6_-2P, P06427] | below the threshold

molecular target: T10, APBA2_2, Q99767; assay: holdup assay; design: key: below the threshold = too weak to quantify, mostly under pKd 3.1 to 4; settings: modified: phospho on T at position -2 from the C-terminal residue

Row | Binder | pKd
13 | SRSRRRETAL [HPV33-E6_-2P, P06427] | below the threshold

molecular target: IL16_3, Q14005; assay: holdup assay; design: key: below the threshold = too weak to quantify, mostly under pKd 3.1 to 4; settings: modified: phospho on T at position -2 from the C-terminal residue
Sequence (Q14005 1107-1207): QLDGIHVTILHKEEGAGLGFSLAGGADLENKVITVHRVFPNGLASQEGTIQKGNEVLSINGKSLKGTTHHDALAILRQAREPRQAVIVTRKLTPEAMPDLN

Row | Binder | pKd
14 | SRSRRRETAL [HPV33-E6_-2P, P06427] | below the threshold

molecular target: DLG1_1, Q12959; assay: holdup assay; design: key: below the threshold = too weak to quantify, mostly under pKd 3.1 to 4; settings: modified: phospho on T at position -2 from the C-terminal residue

Row | Binder | pKd
15 | SRSRRRETAL [HPV33-E6_-2P, P06427] | below the threshold

molecular target: DLG2_3, Q15700; assay: holdup assay; design: key: below the threshold = too weak to quantify, mostly under pKd 3.1 to 4; settings: modified: phospho on T at position -2 from the C-terminal residue

Row | Binder | pKd
16 | SRSRRRETAL [HPV33-E6_-2P, P06427] | below the threshold

molecular target: Inadl_5, Q8NI35; assay: holdup assay; design: key: below the threshold = too weak to quantify, mostly under pKd 3.1 to 4; settings: modified: phospho on T at position -2 from the C-terminal residue
Sequence (Q8NI35 673-780): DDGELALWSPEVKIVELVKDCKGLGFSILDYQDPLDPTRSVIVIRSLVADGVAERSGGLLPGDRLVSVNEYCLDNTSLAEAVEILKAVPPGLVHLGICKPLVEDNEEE

Row | Binder | pKd
17 | SRSRRRETAL [HPV33-E6_-2P, P06427] | below the threshold

molecular target: T11, HTRA3, P83110; assay: holdup assay; design: key: below the threshold = too weak to quantify, mostly under pKd 3.1 to 4; settings: modified: phospho on T at position -2 from the C-terminal residue

Row | Binder | pKd
18 | SRSRRRETAL [HPV33-E6_-2P, P06427] | below the threshold

molecular target: FRMPD3, Q5JV73; assay: holdup assay; design: key: below the threshold = too weak to quantify, mostly under pKd 3.1 to 4; settings: modified: phospho on T at position -2 from the C-terminal residue
Sequence (Q5JV73 12-100): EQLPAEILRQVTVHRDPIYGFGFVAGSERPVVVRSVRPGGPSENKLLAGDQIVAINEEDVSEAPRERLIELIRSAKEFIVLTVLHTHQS

Row | Binder | pKd
19 | SRSRRRETAL [HPV33-E6_-2P, P06427] | below the threshold

molecular target: GOPC, Q9HD26; assay: holdup assay; design: key: below the threshold = too weak to quantify, mostly under pKd 3.1 to 4; settings: modified: phospho on T at position -2 from the C-terminal residue

Row | Binder | pKd
20 | SRSRRRETAL [HPV33-E6_-2P, P06427] | below the threshold

molecular target: LNX1_1, Q8TBB1; assay: holdup assay; design: key: below the threshold = too weak to quantify, mostly under pKd 3.1 to 4; settings: modified: phospho on T at position -2 from the C-terminal residue
Sequence (Q8TBB1 261-371): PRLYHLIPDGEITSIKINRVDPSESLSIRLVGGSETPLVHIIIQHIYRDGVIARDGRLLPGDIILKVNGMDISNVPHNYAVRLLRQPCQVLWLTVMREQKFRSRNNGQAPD

Row | Binder | pKd
21 | SRSRRRETAL [HPV33-E6_-2P, P06427] | below the threshold

molecular target: GRIP2_7, Q9C0E4; assay: holdup assay; design: key: below the threshold = too weak to quantify, mostly under pKd 3.1 to 4; settings: modified: phospho on T at position -2 from the C-terminal residue
Sequence (Q9C0E4 934-1023): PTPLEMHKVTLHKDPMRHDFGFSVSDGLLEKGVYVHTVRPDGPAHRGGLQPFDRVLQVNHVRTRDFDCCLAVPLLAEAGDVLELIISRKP

Row | Binder | pKd
22 | SRSRRRETAL [HPV33-E6_-2P, P06427] | below the threshold

molecular target: MAST1, Q9Y2H9; assay: holdup assay; design: key: below the threshold = too weak to quantify, mostly under pKd 3.1 to 4; settings: modified: phospho on T at position -2 from the C-terminal residue
Sequence (Q9Y2H9 962-1065): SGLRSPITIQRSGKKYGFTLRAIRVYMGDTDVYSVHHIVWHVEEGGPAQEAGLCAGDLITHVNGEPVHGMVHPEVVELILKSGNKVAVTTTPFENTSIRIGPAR

Row | Binder | pKd
23 | SRSRRRETAL [HPV33-E6_-2P, P06427] | below the threshold

molecular target: T12, PDZD2_2, O15018; assay: holdup assay; design: key: below the threshold = too weak to quantify, mostly under pKd 3.1 to 4; settings: modified: phospho on T at position -2 from the C-terminal residue

Row | Binder | pKd
24 | SRSRRRETAL [HPV33-E6_-2P, P06427] | below the threshold

molecular target: T13, ARHGAP21, Q5T5U3; assay: holdup assay; design: key: below the threshold = too weak to quantify, mostly under pKd 3.1 to 4; settings: modified: phospho on T at position -2 from the C-terminal residue

Row | Binder | pKd
25 | SRSRRRETAL [HPV33-E6_-2P, P06427] | 4.02
